Here are results for two substances from article PMC3741624.

The experiment concerns the target human plasma fibronectin, manually deposited single Fn fibers (human).

“integrin α5β1 (from UniProt P08648 42-1049; P05556 21-798) (receptor)”: the ratio of ALP positive hMSCs on stretched Fn fibers after 7 days with the function-blocking antibody against α5β1 (clone JBS5), against no antibody was 31%.
As to “integrin αvβ3 (from UniProt P06756 31-1048; P05106 27-788) (receptor)”, the ratio of ALP positive hMSCs on relaxed Fn fibers after 7 days with the function-blocking antibody against αvβ3 (clone 23C6), against no antibody is 30%.
